Data: US20060258562

Target: STAT3 (Signal Transducer and Activator of Transcription 3), P42227
Sequence (P42227 2-770): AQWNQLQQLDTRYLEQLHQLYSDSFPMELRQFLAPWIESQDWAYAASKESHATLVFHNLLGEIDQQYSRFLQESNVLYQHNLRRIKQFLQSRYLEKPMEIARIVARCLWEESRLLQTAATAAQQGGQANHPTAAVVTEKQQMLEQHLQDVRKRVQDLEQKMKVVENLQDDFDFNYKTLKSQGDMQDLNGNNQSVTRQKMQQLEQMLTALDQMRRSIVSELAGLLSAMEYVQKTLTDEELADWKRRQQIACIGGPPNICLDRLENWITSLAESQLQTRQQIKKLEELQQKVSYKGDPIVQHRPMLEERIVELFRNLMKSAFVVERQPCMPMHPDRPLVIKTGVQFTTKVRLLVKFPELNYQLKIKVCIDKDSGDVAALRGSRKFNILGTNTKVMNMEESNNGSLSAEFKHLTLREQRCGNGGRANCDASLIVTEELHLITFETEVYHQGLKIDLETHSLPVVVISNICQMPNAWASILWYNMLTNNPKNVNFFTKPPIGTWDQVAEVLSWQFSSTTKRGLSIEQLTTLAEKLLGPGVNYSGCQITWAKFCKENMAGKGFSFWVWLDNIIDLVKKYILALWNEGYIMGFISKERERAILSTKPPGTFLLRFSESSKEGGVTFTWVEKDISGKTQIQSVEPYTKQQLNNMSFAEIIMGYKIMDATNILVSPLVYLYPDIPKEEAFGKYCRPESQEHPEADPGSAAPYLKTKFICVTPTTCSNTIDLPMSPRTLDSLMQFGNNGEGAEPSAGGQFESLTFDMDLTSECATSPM

B1: PKCδ (protein kinase C delta) (protein)
chain: MAPFLRISFNSYELGSLQVEDEASQPFCAVKMKEALSTERGKTLVQKKPTMYPEWKTTFDAHIYEGRVIQIVLMRAAEDPVSEVTVGVSVLAERCKKNNGKAEFWLDLQPQAKVLMCVQYFLEDGDCKQSMRSEEEAKFPTMNRRGAIKQAKIHYIKNHEFIATFFGQPTFCSVCKEFVWGLNKQGYKCRQCNAAIHKKCIDKIIGRCTGTATNSRDTIFQKERFNIDMPHRFKVYNYMSPTFCDHCGSLLWGLVKQGLKCEDCGMNVHHKCREKVANLCGINQKLLAEALNQVTQRSSRKLDTTESVGIYQGFEKKPEVSGSDILDNNGTYGKIWEGSTRCTLENFTFQKVLGKGSFGKVLLAELKGKDKYFAIKCLKKDVVLIDDDVECTMVEKRVLALAWESPFLTHLICTFQTKDHLFFVMEFLNGGDLMFHIQDKGRFELYRATFYAAEIICGLQFLHSKGIIYRDLKLDNVMLDRDGHIKIADFGMCKENIFGEGRASTFCGTPDYIAPEILQGLKYSFSVDWWSFGVLLYEMLIGQSPFHGDDEDELFESIRVDTPHYPRWITKESKDIMEKLFERDPDKRLGVTGNIRIHPFFKTINWSLLEKRKVEPPFKPKVKSPSDYSNFDPEFLNEKPQLSFSDKNLIDSMDQEAFHGFSFVNPKFEQFLDI
With B1 the “immunofluorescence with antiphospho-Tyr-705-STAT3 antibody after insulin stimulation, with or without rottlerin” value was “Following insulin stimulation, PKCδ is activated and in turn phosphorylates and activates STAT3”.
